T1: CD99 peptide containing the 10A1 epitope, Ac-GENDDPRPPNPPKPM-amide (human)
T1 construct: Synthetic peptide (New England Peptide); also called residues 62-76
T1 peptide: Ac-GENDDPRPPNPPKPM-NH2

B1: CD99 endogenously expressed on cells (Jurkat, KOPT-K1) (receptor)
chain: DGGFDLSDALPDNENKKPTAIPKKPSAGDDFDLGDAVVDGENDDPRPPNPPKPMPNPNPNHPSSSGSFSDADLADGVSGGEGKGGSDGGGSHRKEGEEADAPGVIPGIVGAVVVAVAGAISSFIAYQKKKLCFKENAEQGEVDMESHRNANAEPAVQRTLLEK
modifications: O-linked glycosylation (natural, on cells)
notes: also called endogenously expressed CD99; CD99 on cells
B2: 10A1 Fab (Fab, V domains shown)
VH: QVQLQQSGPVLVKPSQTLSLTCAISGDSISSDTTAWSWIRRSPSRGLEWLGWTYYRSKWFNYYAVSVKGRVTINPDTSKNQFSLQLSSVTPEDTAVYYCARGNGNGGMDVWGQGTTVTVSS
VL: SYVLTQPASASVSPGQTARITCSGDALPKQYAYWYQQKPGQAPVLVIFKDSERPSGVPERFSGSSSGTTVTLTISGAQAEDEADYYCQSVDNSGFYQVFGGGTQLTVL
notes: Fab made in E. coli by attaching VH and VL to CH1 and CL; also called 10A1 in the Fab format; monovalent 10A1
B3: 10A1 IgG-HCscFv (antibody)
heavy: QVQLQQSGPVLVKPSQTLSLTCAISGDSISSDTTAWSWIRRSPSRGLEWLGWTYYRSKWFNYYAVSVKGRVTINPDTSKNQFSLQLSSVTPEDTAVYYCARGNGNGGMDVWGQGTTVTVSSASTKGPSVFPLAPSSKSTSGGTAALGCLVKDYFPEPVTVSWNSGALTSGVHTFPAVLQSSGLYSLSSVVTVPSSSLGTQTYICNVNHKPSNTKVDKKVEPKSCDKTHTCPPCPAPEAAGGPSVFLFPPKPKDTLMISRTPEVTCVVVDVSHEDPEVKFNWYVDGVEVHNAKTKPREEQYNSTYRVVSVLTVLHQDWLNGKEYKCKVSNKALGAPIEKTISKAKGQPREPQVYTLPPSREEMTKNQVSLTCLVKGFYPSDIAVEWESNGQPENNYKTTPPVLDSDGSFFLYSKLTVDKSRWQQGNVFSCSVMHEALHNHYTQKSLSLSPGKSSGSSGSSSSSGSSSQVQLQQSGPVLVKPSQTLSLTCAISGDSISSDTTAWSWIRRSPSRGLEWLGWTYYRSKWFNYYAVSVKGRVTINPDTSKNQFSLQLSSVTPEDTAVYYCARGNGNGGMDVWGQGTTVTVSSGSSSSSSGSSGSSSSSYVLTQPASASVSPGQTARITCSGDALPKQYAYWYQQKPGQAPVLVIFKDSERPSGVPERFSGSSSGTTVTLTISGAQAEDEADYYCQSVDNSGFYQVFGGGTQLTVL
light: SYVLTQPASASVSPGQTARITCSGDALPKQYAYWYQQKPGQAPVLVIFKDSERPSGVPERFSGSSSGTTVTLTISGAQAEDEADYYCQSVDNSGFYQVFGGGTQLTVLRTVAAPSVFIFPPSDEQLKSGTASVVCLLNNFYPREAKVQWKVDNALQSGNSQESVTEQDSKDSTYSLSSTLTLSKADYEKHKVYACEVTHQGLSSPVTKSFNRGEC
notes: Human IgG1 LALA-PG with the 10A1 scFv appended by a linker to the C-terminus of each heavy chain; Valency of four; also called 10A1 HCscFv; 10A1 HC-scFv

Test [1] concerns the target T2, tetravalent SAV-10A1 Fab complex (A4 streptavidin with biotinylated 10A1 Fab) (UniProt P22629 37-163, limits assumed, biotin on the C-terminal AviTag of the Fab heavy chain).
T2 construct: also called tetravalent SAV-Fab complex; not shown: N-terminal 6xHis tag
Briefly: flow cytometry titration on KOPT-K1 cells (FIG. 4C).

Test [2] deals with T1, CD99 peptide containing the 10A1 …. Briefly: X-ray crystal structure of the complex, 3.10 Å.
The target in test [3] is B1. Briefly: cell-based or functional assay.
Test [4] has as its target B1. Briefly: flow cytometry titration on KOPT-K1 cells, anti-Fab secondary antibody (FIG. 3B).

T2 sequence (P22629 37-163 limits assumed, one chain of several): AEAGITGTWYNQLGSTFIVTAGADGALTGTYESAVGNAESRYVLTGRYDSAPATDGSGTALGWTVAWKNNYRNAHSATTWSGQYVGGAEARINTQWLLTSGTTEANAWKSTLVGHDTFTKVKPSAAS

As to B1, the binding result in test [1] is reported as “binds”.

As to B2, the binding result in test [2] is on record as “binds”.

Turning to B3, the “IC50 of cytotoxicity (Annexin V, KOPT-K1 cells, 18 hours)” value in test [3] was 82 nM Fv. Also, the “maximum fluorescence intensity relative to the bivalent and dodecavalent antibodies” value in test [4] was about 0.5 fold.
